Assay results published in patent US5840867.
Like-named read-outs stand apart in the source and are kept apart here.

Key:
[1] = target: bradykinin (peptide, thiopropyl-derivatised on Sepharose for selection) (UniProt P01042); details: method not stated, cited from earlier work
ovalbumin = target: T1, ovalbumin (UniProt P01012); experiment: filter; details: 60 pmol ovalbumin; DNA alone 0.07%
T1 sequence: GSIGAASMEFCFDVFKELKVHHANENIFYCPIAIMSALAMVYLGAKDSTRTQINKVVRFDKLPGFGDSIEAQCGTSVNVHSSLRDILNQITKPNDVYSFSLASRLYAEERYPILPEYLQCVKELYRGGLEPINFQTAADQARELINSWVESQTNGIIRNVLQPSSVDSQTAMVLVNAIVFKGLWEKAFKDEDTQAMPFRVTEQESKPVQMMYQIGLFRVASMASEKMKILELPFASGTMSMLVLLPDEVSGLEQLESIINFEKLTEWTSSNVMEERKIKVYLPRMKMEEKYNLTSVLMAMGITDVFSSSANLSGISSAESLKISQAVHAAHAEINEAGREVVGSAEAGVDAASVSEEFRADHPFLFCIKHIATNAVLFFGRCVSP

thrombin = thrombin (Homo sapiens?) (UniProt P00734+P00734); experiment: filter

Chain of bradykinin (peptide, thiopropyl-derivatised on Sepharose for selection) (P01042 whole entry, looked up, tested part not stated): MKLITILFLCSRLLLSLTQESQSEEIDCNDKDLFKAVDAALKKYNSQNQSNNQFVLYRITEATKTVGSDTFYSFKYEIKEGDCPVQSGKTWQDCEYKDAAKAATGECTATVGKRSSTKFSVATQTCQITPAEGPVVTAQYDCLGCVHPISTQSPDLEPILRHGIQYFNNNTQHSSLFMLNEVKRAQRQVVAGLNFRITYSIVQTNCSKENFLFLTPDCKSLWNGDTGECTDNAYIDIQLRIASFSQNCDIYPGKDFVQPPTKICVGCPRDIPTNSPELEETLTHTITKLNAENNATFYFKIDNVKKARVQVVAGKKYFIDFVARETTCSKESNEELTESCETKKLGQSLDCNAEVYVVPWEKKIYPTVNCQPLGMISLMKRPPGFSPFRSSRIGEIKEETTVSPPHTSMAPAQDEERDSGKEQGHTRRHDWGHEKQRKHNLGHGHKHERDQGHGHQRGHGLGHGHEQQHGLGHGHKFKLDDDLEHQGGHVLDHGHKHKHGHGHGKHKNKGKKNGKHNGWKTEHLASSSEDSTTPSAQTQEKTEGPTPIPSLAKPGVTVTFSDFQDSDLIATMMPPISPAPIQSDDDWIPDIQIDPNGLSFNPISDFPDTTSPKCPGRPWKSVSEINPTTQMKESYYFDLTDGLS

CGTACGGTCGACGCTAGCNNNNNNNNNNNNNNNNNNNNNNNNNNNNNNNNNNNNNNNNNNNNNNNNNNNNNNNNNNNNCACGTGGAGCTCGGATCC [Round 5 bradykinin aptamer pool]
Kd ([1]; pool): 50 µM

CGTACGGTCGACGCTAGCNNNNNNNNNNNNNNNNNNNNNNNNNNNNNNNNNNNNNNNNNNNNNNNNNNNNNNNNNNNNCACGTGGAGCTCGGATCC [Round 5 thrombin aptamer pool (96-mer)]
binding signal (ovalbumin): 0.05 % DNA bound
binding signal (thrombin; 60 pmol thrombin, 3.5 pmol DNA in 200 uL selection buffer, RT 1 h, DNA alone 0.07%): 20.4 % DNA bound

CGTACGGTCGACGCTAGCNNNNNNNNNNNNNNNNNNNNNNNNNNNNNNNNNNNNNNNNNNNNNNNNNNNNNNNNNNNNCACGTGGAGCTCGGATCC [unselected 96-mer pool]
binding signal (thrombin; unselected DNA, DNA alone 0.08%): 0.06 % DNA bound
Kd ([1]; unselected DNA): > 1000 µM
